# Measurements published in patent US20250049939A1 (TUBULIS, published 2025).
# Changes are numbered by the printed parent chain.
# T1: recombinant human FLT3 protein (human, UniProt P36888 27-541)
# T1 construct: also called recombinant FLT3 protein; human recombinant FLT3 protein (10445-H08H, Sino Biological)
# T1 sequence: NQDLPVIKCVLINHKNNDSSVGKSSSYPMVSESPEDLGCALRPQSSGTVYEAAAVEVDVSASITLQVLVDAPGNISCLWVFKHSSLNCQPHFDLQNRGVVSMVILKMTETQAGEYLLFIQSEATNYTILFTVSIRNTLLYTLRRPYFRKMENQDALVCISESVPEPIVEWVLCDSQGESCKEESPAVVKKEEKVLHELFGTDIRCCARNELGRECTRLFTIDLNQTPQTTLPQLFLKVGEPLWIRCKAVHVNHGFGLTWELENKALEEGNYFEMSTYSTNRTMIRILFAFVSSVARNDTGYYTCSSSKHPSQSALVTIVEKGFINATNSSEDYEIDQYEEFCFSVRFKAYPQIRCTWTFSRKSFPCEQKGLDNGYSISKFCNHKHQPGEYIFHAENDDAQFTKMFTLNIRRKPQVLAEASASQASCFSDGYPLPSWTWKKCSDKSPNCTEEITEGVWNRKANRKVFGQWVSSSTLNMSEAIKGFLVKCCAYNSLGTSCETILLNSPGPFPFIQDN
# T2: human wildtype FLT3 expressed on Ba/F3 cells (human, UniProt P36888 27-993)
# T2 construct: also called hFLT3 wt; Ba/F3-FLT3
# T2 sequence: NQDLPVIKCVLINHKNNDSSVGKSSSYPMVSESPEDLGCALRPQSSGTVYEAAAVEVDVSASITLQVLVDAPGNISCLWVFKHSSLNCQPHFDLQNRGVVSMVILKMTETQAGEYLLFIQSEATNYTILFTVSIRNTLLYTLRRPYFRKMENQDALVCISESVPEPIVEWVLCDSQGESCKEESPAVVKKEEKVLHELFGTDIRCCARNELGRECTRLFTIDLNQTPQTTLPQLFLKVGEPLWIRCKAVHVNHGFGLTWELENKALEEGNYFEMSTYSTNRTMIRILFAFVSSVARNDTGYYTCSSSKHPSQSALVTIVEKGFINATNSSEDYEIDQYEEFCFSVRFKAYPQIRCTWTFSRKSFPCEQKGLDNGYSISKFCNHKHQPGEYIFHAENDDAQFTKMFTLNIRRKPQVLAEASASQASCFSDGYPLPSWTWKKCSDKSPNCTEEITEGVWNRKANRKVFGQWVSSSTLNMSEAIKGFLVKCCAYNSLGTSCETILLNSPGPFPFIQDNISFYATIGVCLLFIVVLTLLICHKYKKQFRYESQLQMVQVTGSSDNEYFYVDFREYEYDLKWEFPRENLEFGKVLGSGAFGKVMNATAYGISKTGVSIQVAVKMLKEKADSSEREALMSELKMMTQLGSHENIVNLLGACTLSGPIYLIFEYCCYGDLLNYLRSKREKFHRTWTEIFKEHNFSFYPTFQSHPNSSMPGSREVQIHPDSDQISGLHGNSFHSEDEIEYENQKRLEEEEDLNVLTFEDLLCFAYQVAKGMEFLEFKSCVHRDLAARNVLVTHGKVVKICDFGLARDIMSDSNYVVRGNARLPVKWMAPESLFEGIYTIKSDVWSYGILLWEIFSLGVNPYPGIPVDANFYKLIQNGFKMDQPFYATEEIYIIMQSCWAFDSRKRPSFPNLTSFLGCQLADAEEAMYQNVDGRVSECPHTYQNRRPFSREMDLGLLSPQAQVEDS
# B1: Humanized clone 13 of 20D9 (VH3 + VK1; HC-LALA, same as Clone #3 but with LALA mutation in HC constant region) (antibody, human IgG1, kappa, L234A L235A)
# heavy: not shown
# light: DIQMTQSPSVLSASVGDRVTINCRASQNINKELNWYQQKLGEAPKLLIYNTNNLQSGVPSRFSGSGSGTDYTLTISSLQPEDVATYFCFQHKSWPLTFGSGTKLEIKRTVAAPSVFIFPPSDEQLKSGTASVVCLLNNFYPREAKVQWKVDNALQSGNSQESVTEQDSKDSTYSLSSTLTLSKADYEKHKVYACEVTHQGLSSPVTKSFNRGEC
# notes: also called #3-LALA; #3-LALA mab
# B2: 30B12 chimeric anti-FLT3 monoclonal antibody (antibody, V domains shown)
# VH: QVQLKVSGPGLVQPSQTLSLTCAVSGFSLSNYHVSWVRQPPGKGLEWIAAISSGGSTYYNSPLKSRLSISRDTSKSQVFLKMNSLQTEDTAIYFCTGEDGYTFGNVMDAWGQGASVTVSS
# VL: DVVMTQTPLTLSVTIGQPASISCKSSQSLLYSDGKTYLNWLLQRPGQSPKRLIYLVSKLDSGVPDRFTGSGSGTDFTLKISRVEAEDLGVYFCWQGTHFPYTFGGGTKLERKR
# B3: 29H1 chimeric anti-FLT3 monoclonal antibody (antibody, V domains shown)
# VH: EVKLEESGGGLVQPGGSMKFFCVASGFTFSNYWMNWVRQSPEKGLEWVAQIKLKSDNYATRYAESVKGRFTISRDDSKSSVNLQMNNLRAEDTGIYYCTVSLARSDYWGQGTTLTVSS
# VL: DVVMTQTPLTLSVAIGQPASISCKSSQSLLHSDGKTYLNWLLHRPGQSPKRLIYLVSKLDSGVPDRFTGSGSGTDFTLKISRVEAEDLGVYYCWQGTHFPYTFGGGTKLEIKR
# B4: 27E7 chimeric anti-FLT3 monoclonal antibody (antibody, V domains shown)
# VH: B3 VH with G10D, F20L, F21S, S30R, K52R, R61H, I72M, N82Y, N87T
# VL: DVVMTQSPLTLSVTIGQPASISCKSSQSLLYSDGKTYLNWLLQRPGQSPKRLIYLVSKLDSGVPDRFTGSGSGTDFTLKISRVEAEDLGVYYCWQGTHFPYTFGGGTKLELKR
# B5: 4B12 chimeric anti-FLT3 monoclonal antibody (antibody, V domains shown)
# VH: QVQLQQSGPGLVQPSQTLSLTCTVSGFSLTSYNVNWVRQPPGKGLEWIGAMWRGGGTDYNPALKSRLSISRDTSKSQVFLKMNRLQTEDTAIYFCTRGFGDYWGQGVMVTVSS
# VL: DIQMTQTPLSLSVAIGQSASISCKSSQSLKYSDGKTYLNWVFQSPGQSPKRLIYQVSKLDSGVPDRFSGTGSETDFTLKISRVEAEDLGVYYCCQGSYSPSTFGAGTKLELKR
# notes: also called 4B12 mab
# B6: #5 (antibody, human IgG1, kappa, V domains shown)
# VH: QVMLVESGGGVVQPGRSLRLSCAASGFTFNNYWMTWVRQAPGKGLEWIASITKTGGGTYYPDSVKGRFTISRDNAKSTLYLQMNSLRSEDTATYYCTTLQQLGVMDAWGQGASVTVSS
# VL: DIQMTQSPSVLSASVGDRVTITCRASQNINKELNWYQQKLGKAPKLLIYNTNNLQSGVPSRFSGSGSGTDFTLTISSLQPEDFATYYCFQHKSWPLTFGSGTKLEIKR
# notes: also called Humanized clone 5 of 20D9 (VH1 + VK2); Clone #5
# B7: #11 (antibody, human IgG1, kappa, V domains shown)
# VH: B6 VH with M3Q, P61A, A75S, S77N, S88A, T93V, A112T, S113L
# VL: B6 VL with V10S, N28S, L40P, S100Q
# notes: also called Humanized clone 11 of 20D9 (VH3 + VK3); Clone #11
# B8: #7 (antibody, human IgG1, kappa, V domains shown)
# VH: B6 VH with M3Q, P61A, A75S, S77N, S88A, T93V, A112T, S113L
# VL: B6 VL
# notes: also called Humanized clone 7 of 20D9 (printed as VH3 + VK29); Clone #7
# B9: #6 (antibody, human IgG1, kappa, V domains shown)
# VH: B6 VH with A75S, S88A
# VL: B6 VL
# notes: also called Humanized clone 6 of 20D9 (VH2 + VK2); Clone #6
# B10: Humanized clone 2 of 20D9 (VH2 + VK1) (antibody, human IgG1, kappa, V domains shown)
# VH: B6 VH with A75S, S88A
# VL: B6 VL with T22N, K42E, F71Y, F83V, Y87F
# B11: Humanized clone 4 of 20D9 (VH4 + VK1) (antibody, human IgG1, kappa, V domains shown)
# VH: B6 VH with M3Q, V37I, P61A, A75S, S77N, S88A, T93V, A112T, S113L
# VL: B6 VL with T22N, K42E, F71Y, F83V, Y87F
# B12: Humanized clone 1 of 20D9 (VH1 + VK1) (antibody, human IgG1, kappa, V domains shown)
# VH: B6 VH
# VL: B6 VL with T22N, K42E, F71Y, F83V, Y87F
# B13: #12 (antibody, human IgG1, kappa, V domains shown)
# VH: B6 VH with M3Q, V37I, P61A, A75S, S77N, S88A, T93V, A112T, S113L
# VL: B6 VL with V10S, N28S, L40P, S100Q
# notes: also called Humanized clone 12 of 20D9 (VH4 + VK3); Clone #12
# B14: #8 (antibody, human IgG1, kappa, V domains shown)
# VH: B6 VH with M3Q, V37I, P61A, A75S, S77N, S88A, T93V, A112T, S113L
# VL: B6 VL
# notes: also called Humanized clone 8 of 20D9 (VH4 + VK2); Clone #8
# B15: #10 (antibody, human IgG1, kappa, V domains shown)
# VH: B6 VH with A75S, S88A
# VL: B6 VL with V10S, N28S, L40P, S100Q
# notes: also called Humanized clone 10 of 20D9 (VH2 + VK3); Clone #10
# B16: #9 (antibody, human IgG1, kappa, V domains shown)
# VH: B6 VH
# VL: B6 VL with V10S, N28S, L40P, S100Q
# notes: also called Humanized clone 9 of 20D9 (VH1 + VK3); Clone #9
# Target: T3, PDGFRα on Ba/F3 cells (UniProt P16234 24-1089, limits assumed)
# T3 construct: whole, on cells
# Assay: flow cytometry, cell surface binding to Ba/F3 pMIY cells expressing PDGFRα, MFI ratio normalized to IgG1, mean ± s.d. of n=3
# T3 sequence (P16234 24-1089 limits assumed): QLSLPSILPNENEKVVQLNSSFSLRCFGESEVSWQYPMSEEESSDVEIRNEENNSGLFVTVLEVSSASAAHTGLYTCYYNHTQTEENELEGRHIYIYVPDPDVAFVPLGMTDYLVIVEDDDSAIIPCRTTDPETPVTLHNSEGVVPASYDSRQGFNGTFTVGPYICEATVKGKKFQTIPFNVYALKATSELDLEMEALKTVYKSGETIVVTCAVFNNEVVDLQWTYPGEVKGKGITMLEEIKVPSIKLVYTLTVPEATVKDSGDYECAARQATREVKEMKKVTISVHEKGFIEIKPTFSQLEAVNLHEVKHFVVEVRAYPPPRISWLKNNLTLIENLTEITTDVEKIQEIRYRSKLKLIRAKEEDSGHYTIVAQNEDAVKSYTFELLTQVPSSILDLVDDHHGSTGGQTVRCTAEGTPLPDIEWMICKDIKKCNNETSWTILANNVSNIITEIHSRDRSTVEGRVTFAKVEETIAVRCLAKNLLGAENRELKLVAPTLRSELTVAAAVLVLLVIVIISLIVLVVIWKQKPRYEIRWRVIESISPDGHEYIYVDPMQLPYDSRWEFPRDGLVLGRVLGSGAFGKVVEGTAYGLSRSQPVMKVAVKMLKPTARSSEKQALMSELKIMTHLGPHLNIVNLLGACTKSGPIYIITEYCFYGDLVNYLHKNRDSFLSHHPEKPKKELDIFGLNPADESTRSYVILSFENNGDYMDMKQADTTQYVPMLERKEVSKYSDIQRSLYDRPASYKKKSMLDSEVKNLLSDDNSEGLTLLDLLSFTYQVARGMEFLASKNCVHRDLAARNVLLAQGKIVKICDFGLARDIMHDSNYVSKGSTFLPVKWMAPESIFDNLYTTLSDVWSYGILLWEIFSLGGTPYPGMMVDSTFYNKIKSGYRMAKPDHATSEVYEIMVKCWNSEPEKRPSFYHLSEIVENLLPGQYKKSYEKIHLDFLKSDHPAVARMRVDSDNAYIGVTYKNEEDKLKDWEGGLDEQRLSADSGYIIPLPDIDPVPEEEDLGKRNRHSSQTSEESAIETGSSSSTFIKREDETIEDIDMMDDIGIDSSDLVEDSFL
row,binding result,Binder
1,no binding,B1

# Target: T4, VEGFR-2 on Ba/F3 cells (UniProt P35968 20-1356, limits assumed)
# T4 construct: whole, on cells
# Assay: flow cytometry, cell surface binding to Ba/F3 pMIY cells expressing VEGFR, MFI ratio normalized to IgG1, mean ± s.d. of n=3
# T4 sequence (P35968 20-1356 limits assumed): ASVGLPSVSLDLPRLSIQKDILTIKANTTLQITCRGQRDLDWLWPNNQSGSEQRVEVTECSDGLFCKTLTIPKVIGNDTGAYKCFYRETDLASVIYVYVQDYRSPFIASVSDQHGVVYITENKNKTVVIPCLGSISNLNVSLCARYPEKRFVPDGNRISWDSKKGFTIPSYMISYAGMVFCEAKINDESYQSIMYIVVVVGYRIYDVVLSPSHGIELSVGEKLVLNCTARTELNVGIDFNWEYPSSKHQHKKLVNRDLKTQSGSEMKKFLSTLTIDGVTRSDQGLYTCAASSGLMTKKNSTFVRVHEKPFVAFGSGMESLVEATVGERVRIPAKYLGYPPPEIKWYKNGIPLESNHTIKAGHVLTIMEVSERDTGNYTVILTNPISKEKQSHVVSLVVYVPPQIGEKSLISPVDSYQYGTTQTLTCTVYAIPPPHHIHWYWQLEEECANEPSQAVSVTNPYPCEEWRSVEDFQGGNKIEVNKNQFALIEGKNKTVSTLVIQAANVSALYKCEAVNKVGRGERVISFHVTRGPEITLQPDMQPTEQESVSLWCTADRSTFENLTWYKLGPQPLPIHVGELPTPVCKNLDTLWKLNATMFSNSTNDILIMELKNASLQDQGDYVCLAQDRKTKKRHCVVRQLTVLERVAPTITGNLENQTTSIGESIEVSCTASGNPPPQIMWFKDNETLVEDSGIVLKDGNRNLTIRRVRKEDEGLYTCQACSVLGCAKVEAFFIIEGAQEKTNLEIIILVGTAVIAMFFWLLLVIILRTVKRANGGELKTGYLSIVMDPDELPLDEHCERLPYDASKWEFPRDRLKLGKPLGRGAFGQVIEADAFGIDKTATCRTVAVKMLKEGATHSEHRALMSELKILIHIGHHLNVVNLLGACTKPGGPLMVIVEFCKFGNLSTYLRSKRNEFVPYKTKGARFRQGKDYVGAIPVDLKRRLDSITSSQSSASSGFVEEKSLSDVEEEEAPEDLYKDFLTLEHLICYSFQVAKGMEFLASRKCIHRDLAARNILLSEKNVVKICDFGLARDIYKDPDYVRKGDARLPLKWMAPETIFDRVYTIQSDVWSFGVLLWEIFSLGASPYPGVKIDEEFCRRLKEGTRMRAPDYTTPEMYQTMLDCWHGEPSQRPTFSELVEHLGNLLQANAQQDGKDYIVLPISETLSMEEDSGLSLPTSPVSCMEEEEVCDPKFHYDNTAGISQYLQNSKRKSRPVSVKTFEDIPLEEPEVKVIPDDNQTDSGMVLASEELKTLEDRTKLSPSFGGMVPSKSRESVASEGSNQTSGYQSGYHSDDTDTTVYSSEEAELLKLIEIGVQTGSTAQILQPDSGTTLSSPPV
row,binding result,Binder
1,no binding,B1

# Target: T5, CSF1R on Ba/F3 cells (UniProt P07333 20-972, limits assumed)
# T5 construct: whole, on cells
# Assay: flow cytometry, cell surface binding to Ba/F3 pMIY cells expressing CSF-1R, MFI ratio normalized to IgG1, mean ± s.d. of n=3
row,binding result,Binder
1,no binding,B1

# Target: T6, c-KIT on Ba/F3 cells (UniProt P10721 26-976, limits assumed)
# T6 construct: whole, on cells
# Assay: flow cytometry, cell surface binding to Ba/F3 pMIY cells expressing c-KIT, MFI ratio normalized to IgG1, mean ± s.d. of n=3
# T6 sequence (P10721 26-976 limits assumed): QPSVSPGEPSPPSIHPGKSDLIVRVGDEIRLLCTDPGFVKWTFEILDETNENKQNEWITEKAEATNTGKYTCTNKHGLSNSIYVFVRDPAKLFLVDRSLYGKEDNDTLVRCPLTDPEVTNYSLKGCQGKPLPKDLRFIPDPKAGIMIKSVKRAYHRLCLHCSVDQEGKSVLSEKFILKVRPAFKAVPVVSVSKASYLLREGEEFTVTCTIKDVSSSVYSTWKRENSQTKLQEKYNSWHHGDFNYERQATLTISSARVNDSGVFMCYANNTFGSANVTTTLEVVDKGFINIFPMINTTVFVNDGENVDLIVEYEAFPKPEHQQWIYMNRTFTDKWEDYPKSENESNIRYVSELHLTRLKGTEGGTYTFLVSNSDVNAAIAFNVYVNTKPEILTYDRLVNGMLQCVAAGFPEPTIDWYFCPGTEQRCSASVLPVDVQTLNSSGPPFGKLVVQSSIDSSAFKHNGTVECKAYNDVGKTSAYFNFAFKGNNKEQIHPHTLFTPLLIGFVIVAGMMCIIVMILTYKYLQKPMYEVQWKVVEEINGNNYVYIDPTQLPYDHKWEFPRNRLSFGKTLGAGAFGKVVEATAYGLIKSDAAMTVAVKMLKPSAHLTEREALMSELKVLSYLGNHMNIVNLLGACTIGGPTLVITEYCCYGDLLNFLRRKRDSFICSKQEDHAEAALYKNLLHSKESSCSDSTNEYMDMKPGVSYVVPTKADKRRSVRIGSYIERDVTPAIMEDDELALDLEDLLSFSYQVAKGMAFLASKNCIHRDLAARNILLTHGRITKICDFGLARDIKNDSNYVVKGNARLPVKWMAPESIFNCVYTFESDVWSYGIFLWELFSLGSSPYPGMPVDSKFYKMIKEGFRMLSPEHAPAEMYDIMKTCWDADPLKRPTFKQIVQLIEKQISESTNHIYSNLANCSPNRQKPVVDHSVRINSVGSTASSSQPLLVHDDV
row,binding result,Binder
1,no binding,B1

# Target: T1, recombinant human FLT3 protein
# Assay: ELISA on recombinant human FLT3, normalized to BSA control
# Experimental: (§1) Maxisorp plates were coated with human recombinant FLT3 protein (10445-H08H, Sino Biological). […] For detection, Attophos Fluorescent Substrate System (S1000, Promega) was applied. The fluorescence was read with excitation of 405 nm and emission at 500-550 nm. The calculation of the dissociation constant KD was performed using GraphPad Prism version 9.4.0.
row,Kd [µg/mL],Binder
1,3.31,B2
2,0.0284,B3
3,0.0115,B4
4,0.0319,B5

# Target: CD16 (Fc gamma receptor) on Ba/F3 cells (human, UniProt P08637 17-254)
# Assay: flow cytometry, cell surface binding to Ba/F3-pMIY cells expressing CD16, specific MFI, mean ± s.d. of n=3
# Chain of CD16 (Fc gamma receptor) on Ba/F3 cells (P08637 17-254 limits assumed): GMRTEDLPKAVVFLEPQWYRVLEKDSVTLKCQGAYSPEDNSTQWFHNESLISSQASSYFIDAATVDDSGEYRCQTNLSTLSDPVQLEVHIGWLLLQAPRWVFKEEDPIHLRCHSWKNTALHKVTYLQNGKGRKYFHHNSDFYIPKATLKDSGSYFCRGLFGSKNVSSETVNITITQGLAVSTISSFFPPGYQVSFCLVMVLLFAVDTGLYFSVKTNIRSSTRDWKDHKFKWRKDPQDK
row,binding result,Binder
1,no binding,B1

# Target: T2, human wildtype FLT3 expressed on Ba/F3 …
# Assay: flow cytometry, cell surface binding to Ba/F3 cells expressing human FLT3 (results of FIG. 14 summarized)
row,Binding to human FLT3 (MFI ratio to IgG1 control),Binder
1,42.4,B6
2,20.5,B7
3,45.7,B8
4,41.3,B9
5,96,B10
6,98.2,B11
7,96,B12
8,24.8,B13
9,43.7,B14
10,20.2,B15
11,21.3,B16

# Target: T1, recombinant human FLT3 protein
# Assay: ELISA with recombinant human FLT3 coated to the plate (results of FIG. 13 summarized)
# Experimental: as §1
# The 12 clones were subsequently analysed in ELISA assays (FIG. 13). Therefore, recombinant human FLT3 was coated on plates and incubated with the antibody candidates. […] Mean±s.d. of n=3 biological replicates.
row,Kd [µg/mL],Binder
1,0.0293,B6
2,0.112,B7
3,0.0371,B8
4,0.0335,B9
5,0.0114,B10
6,0.011,B11
7,0.0114,B12
8,0.0553,B13
9,0.0293,B14
10,0.0778,B15
11,0.0834,B16

# Target: T7, human CD64 (high affinity Fc receptor, FCGR1) on cells (human, UniProt P12314 16-374)
# T7 construct: whole, on cells; also called hCD64; human FCGR1
# Assay: flow cytometry, cell surface binding to Ba/F3-pMIY cells expressing CD64, specific MFI, mean ± s.d. of n=3
# T7 sequence (P12314 16-374): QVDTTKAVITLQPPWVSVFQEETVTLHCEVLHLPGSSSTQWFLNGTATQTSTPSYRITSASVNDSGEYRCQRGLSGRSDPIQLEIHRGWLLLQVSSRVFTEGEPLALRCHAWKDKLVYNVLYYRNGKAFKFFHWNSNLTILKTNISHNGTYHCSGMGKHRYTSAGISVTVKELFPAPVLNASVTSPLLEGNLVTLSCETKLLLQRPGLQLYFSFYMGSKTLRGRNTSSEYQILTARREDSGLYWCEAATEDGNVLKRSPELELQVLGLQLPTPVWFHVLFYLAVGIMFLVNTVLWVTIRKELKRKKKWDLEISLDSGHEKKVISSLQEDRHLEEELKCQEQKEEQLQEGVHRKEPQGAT
row,binding result,Binder
1,binds,B1
